In patent publication US20250049914A1, “STEROID ACID-PEPTIDE BASED INTRACELLULAR CARGO DELIVERY” (DEFENCE THERAPEUTICS INC., priority 2021, published 2025):
Entries after “also recorded” stand apart in the source; their conditions may differ. Where no end group is shown, it is not given here.

Columns and labels:
JIMT-1 cells = assay: Cas9-GFP delivery with Lipofectamine CRISPRMAX transfection reagent; type: cell-based
Description: To assess whether the enhanced intracellular delivery conferred by bile acid-NLS moieties is compatible with other delivery technologies, a delivery experiment in JIMT-1 cells was performed using Lipofectamine™ CRISPRMAX™ Cas9 Transfection Reagent (Thermo Fisher Scientific) according to the manufacturer's protocol, except that the cargo was Cas9-GFP alone or conjugated to/mixed with different bile acid-NLS moieties. The results are shown in Table 3 with GFP fluorescence values being normalized to that of cells incubated with the unconjugated cargo/transfection reagent alone (Cas9-GFP alone). […] Fluorescence microscopy experiments in live cells confirmed that the Cas9-GFP cargoes were successfully delivered to the nucleus of JIMT-1 cells (data not shown).

[1] = tested on: cross-presenting mesenchymal stromal cell line (cpMSC); assay: Antigen-presentation assay using the B3Z reporter system, cross-presenting MSC line; type: cell-based; conditions: cpMSCs, OVA admixed, vs OVA alone or OVA mixed with CA-SV40NLS
Description: (§1) Various bile acid-NLS conjugates were screened using the B3Z reporter system. The B3Z cell line is a T-cell hybridoma specific for the H2-K^b-[…] complex. Once activated via its TCR, the LacZ reporter gene (under the NFAT promoter control) is expressed. Briefly, 1.5×10^5 BMDCs or 2.5×10^5 MSCs were co-cultured with 5×10^4 B3Z cells treated with the mixing conditions of ovalbumin (OVA) and bile acid-NLS conjugates for overnight at 37° C. with 5% CO2. The following day, all cells were washed twice with PBS (pH 7.4), and the cell pellets were lysed by adding 100 μL of a lysis buffer containing 0.15 mM chlorophenol red-beta-D-galactopyranoside (CPRG) substrate (Calbiochem, La Jolla, CA), 0.125% NP40 (EMD Sciences, La Jolla, CA), 9 mM MgCl2 (Aldrich, USA) and 100 mM 2-mercaptoethanol in PBS. After a 5- or 24-h incubation at 37° C., absorbance was taken at 570 nm with 636 nm as the reference wavelength. For these experiments, OVA was re-suspended in PBS (pH 7.3) at 5-10 mg/mL. The different bile acid-NLS conjugates were re-suspended in H2O at 10 mg/mL. Bile acid-NLS conjugate: antigen mixtures were prepared at different molar ratios according to Table 1.
(§2) Further variants of CA-SV40NLS were synthesized in which the SV40NLS peptide was replaced with peptides comprising other NLS's (Table 5) and the antigen presentation activities of the CA-NLS peptide conjugates were evaluated using the B3Z reporter system as described in Example 1. The following conjugate: antigen molar ratios were tested for each conjugate: 2:1, 4:1, 8:1, 12:1 and 22:1. The results in FIGS. 12-15 compare the antigen presentation activities of different conjugates at the conjugate: antigen ratio that yielded the highest B3Z response (OD570) for that conjugate.

BMDCs = assay: Antigen-presentation assay using the B3Z reporter system, BMDCs; type: cell-based, mouse; conditions: BMDCs, OVA admixed, best conjugate: antigen ratio
Description: Mouse bone marrow derived DCs (BMDCs) were generated by flushing the whole marrow from mouse femurs using RPMI™ 1640 supplemented with 10% fetal bovine serum (FBS), 50 U/mL Penicillin-Streptomycin, 2 mM L-glutamine, 10 mM HEPES, 1% MEM Non-essential Amino Acids, 1 mM Sodium Pyruvate, 0.5 mM beta-mercaptoethanol. Following red blood cell lysis, cells were then cultured in media supplemented with 50 ng/mL murine recombinant GM-CSF. The media was changed on days 2, 4, 6 and 8. On day 9, the media was replaced to include recombinant murine GM-CSF and LPS from Escherichia coli 0111 (1 ng/mL) to stimulate DC maturation. Mature DCs were assessed by flow cytometry for their surface expression of CD3, CD19, NK1.1, CD11c, CD80, CD86, and I-A^b.
as §1
Variants of CA-SV40NLS were synthesized in order to explore structure-activity relationships relating to the antigen cross-presentation enhancing activity observed for this conjugate, and therefore a measure of antigen/cargo delivery. More particularly, conjugates having different bile acids conjugated to the SV40NLS peptide (SEQ ID NO: 1) were synthesized and their effect on antigen presentation was evaluated by using the B3Z reporter system with the OVA antigen as described in Example 1. […] In FIG. 11, no increase in antigen cross-presentation in BMDCs over the antigen alone (“OVA”) was observed when OVA was mixed with either unconjugated cholic acid (“CA”) or SV40NLS peptide (“SV40NLS”), although lower sensitivity of the B3Z reporter system as compared to the OT-I CD8 T cell-based assay may have been a factor.
as §2

[2] = Intrinsic tryptophan fluorescence (ITF) after thermal stress; type: physicochemical; conditions: 80° C., ten minutes, 0.8 mg/mL in PBS
Description: An Applied Photophysics (Leatherhead, Surrey, UK) Chirascan™ Q100 circular dichroism (CD) spectrometer was used for intrinsic tryptophan fluorescence (ITF) analysis and a VWR digital heatblock (Radnor, PA) was used for dry block temperature incubations. The Chirascan™ Q100 autosampler rack cooling system was used for all 4° C. incubations. Data was analyzed using MATLAB™ software (Natick, MA). Briefly, samples were removed from storage at −20° C. and allowed to equilibrate to room temperature. Samples were then diluted to 0.8 mg/mL in PBS from stock concentrations in the range of 4 to 5 mg/mL. Diluted samples were then analyzed for ITF without exposure to thermal stress (Native) or after ten minutes of thermal stress by dry block incubation. An aliquot of each diluted sample was incubated at 4° C., a second aliquot was incubated at 37° C., while a third aliquot was incubated at 80° C. BSA, diluted to 0.8 mg/mL, was included with the samples under each of the thermal conditions described above. All samples were re-equilibrated to room temperature after incubation. ITF Analysis was performed in […] by excitation at 280 nm with an emission scan range of 200-600 nm with a bandwidth of 1.0 nm, a Time-per point of 1 s, and a Step of 0.5. The triplicate spectra were blank subtracted, averaged, and converted from units of mdeg to relative fluorescence intensity using MATLAB software. […]

WT MSCs = assay: Antigen cross-presentation assay on wild-type MSCs with B3Z cells; type: cell-based, mouse; conditions: WT MSCs pulsed with OVA with or without conjugate
Description: In order to generate Bone marrow (BM)-derived mouse MSCs, the femurs of 6-8-week-old female Balb/c or C57BL/6 mice were isolated and flushed with Alpha Modification of Eagle's Medium (AMEM) supplemented with 10% FBS and 50 U/mL Penicillin-Streptomycin in a 10 cm cell culture dish, then incubated at 37° C. Two days later, non-adherent cells were removed and the media replaced every 3 to 4 days until plastic-adherent cells reached 80% confluency. The generated cells were detached using 0.05% trypsin and expanded until a uniform MSC population was obtained. The generated MSCs were validated for their innate phenotype by flow-cytometry for the expression of CD44, CD45, CD73, and CD90. The cells were frozen in liquid nitrogen until use.
To assess cross-presentation assay, 25×10^3 cells MSCs were seeded per well in 24-well plate then pulsed with steroid acid peptide-conjugated for 6 h admixed with OVA. At the end of the pulsing period, the cells were washed to remove excess antigen then 5×10^4 B3Z cells. The cells were incubated for 17-19 hours prior to their lysis and incubation for another 4-6 hours at 37° C. with a CPRG solution. The optical density signal was detected at wavelength 570 using a SynergyH1™ microplate reader (Biotek, Winooski, VT, United States).
To determine whether a similar effect occurs in wild type (WT) (i.e., non-engineered) MSCs, BM-derived MSCs (Example 1) were used instead in the same cross presentation assay with B3Z responder cells.

DC2.4 cells = assay: eGFP-Gal3 assessment of damaged endosomes by microscopy; type: cell-based, murine; conditions: 0.1 mg/mL cargo, 3 h, 37° C.
Description: For this assay, 15×10^3 DC2.4 cells were seeded on a sterile cover slide in a 24-well plate. Two days following transfection of DC2.4 cells with the eGFP-hGal3 mammalian expression vector, 0.1 mg/mL of cargo was added to cells then incubated for 3 h at 37° C. The cells were then washed twice to remove excess protein prior to being mounted on a slide. The slides were viewed by fluorescent microscopy (Nikon, Eclipse™ Ti2-U) and the results analyzed using the ImageJ™ software.
A GFP-galectin-3 (GFP-Gal3) based detection system was utilized to explore the effect on endosomal membranes following intracellular delivery of steroid acid-peptide-conjugated cargoes. […] When expressed under normal conditions, Gal3 is evenly distributed across the cytosol but disruption of endosomal membranes allows Gal3 to access and bind luminal glycoproteins. We thus transiently transfected the murine dendritic cell line DC2.4 with a construct expressing Gal3 fused to enhanced green fluorescent protein (eGFP-Gal3). Two days later, DC2.4 cells were incubated with 0.1 mg/mL of either unconjugated OVA cargo or [CA-SV40]-OVA conjugated cargo for 3 h at 37° C. and the cells were observed by fluorescent microscopy.

Molecule | increase in intracellular Cas9-GFP delivery vs Cas9-GFP/transfection reagent alone (JIMT-1 cells) [fold] | antigen-presentation activity of cholic acid-NLS peptide conjugates (B3Z response) [1] | antigen-presentation activity of cholic acid-NLS peptide conjugates (B3Z response) (BMDCs) | ITF spectral change after thermal stress (unfolding) [2] | OVA cross presentation by WT MSCs (B3Z) (WT MSCs) | eGFP-Gal3 marker pattern (endosomal membrane disruption) (DC2.4 cells)
CA-HuR: cholic acid conjugated to HuR NLS peptide CGRFSPMGVDHMSGLSGVNVPG (SEQ ID NO: 13) (not fully specified (N-terminus); also: cholic acid conjugate, site not given here) | 17 | strikingly high antigen-presentation activity | high antigen presentation activity |  |  | 
OVA: albumin from chicken egg white, unconjugated cargo/antigen (protein, UniProt P01012 2-386, looked up) Ovalbumin: GSIGAASMEFCFDVFKELKVHHANENIFYCPIAIMSALAMVYLGAKDSTRTQINKVVRFDKLPGFGDSIEAQCGTSVNVHSSLRDILNQITKPNDVYSFSLASRLYAEERYPILPEYLQCVKELYRGGLEPINFQTAADQARELINSWVESQTNGIIRNVLQPSSVDSQTAMVLVNAIVFKGLWEKAFKDEDTQAMPFRVTEQESKPVQMMYQIGLFRVASMASEKMKILELPFASGTMSMLVLLPDEVSGLEQLESIINFEKLTEWTSSNVMEERKIKVYLPRMKMEEKYNLTSVLMAMGITDVFSSSANLSGISSAESLKISQAVHAAHAEINEAGREVVGSAEAGVDAASVSEEFRADHPFLFCIKHIATNAVLFFGRCVSP |  |  |  | complete denaturation | poorly cross presented | remained cytosolic; also recorded: diffuse cytosolic pattern
50×-cOVA: OVA conjugated with a 50× molar excess of CA-SV40 NLS, about eight moieties per OVA (conjugate, UniProt P01012 2-386, looked up, about eight CA-SV40 NLS conjugates, OVA conjugated with a 50× molar excess of CA-SV40 NLS, about eight moieties per OVA) Ovalbumin: GSIGAASMEFCFDVFKELKVHHANENIFYCPIAIMSALAMVYLGAKDSTRTQINKVVRFDKLPGFGDSIEAQCGTSVNVHSSLRDILNQITKPNDVYSFSLASRLYAEERYPILPEYLQCVKELYRGGLEPINFQTAADQARELINSWVESQTNGIIRNVLQPSSVDSQTAMVLVNAIVFKGLWEKAFKDEDTQAMPFRVTEQESKPVQMMYQIGLFRVASMASEKMKILELPFASGTMSMLVLLPDEVSGLEQLESIINFEKLTEWTSSNVMEERKIKVYLPRMKMEEKYNLTSVLMAMGITDVFSSSANLSGISSAESLKISQAVHAAHAEINEAGREVVGSAEAGVDAASVSEEFRADHPFLFCIKHIATNAVLFFGRCVSP |  |  |  | partial reduction in peak intensity |  | 
